In IntAct's records for PubMed 11226162:

B1: B-box zinc finger protein 25 (Arabidopsis thaliana (Mouse-ear cress)), Q9SID1 (parent)
chain: MKIQCDVCEKAPATLICCADEAALCAKCDVEVHAANKLASKHQRLFLDSLSTKFPPCDICLEKAAFIFCVEDRALLCRDCDEATHAPNTRSANHQRFLATGIRVALSSTSCNQEVEKNHFDPSNQQSLSKPPTQQPAAPSPLWATDEFFSYSDLDCSNKEKEQLDLGELDWLAEMGLFGDQPDQEALPVAEVPELSFSHLAHAHSYNRPMKSNVPNKKQRLEYRYDDEEEHFLVPDLG
partner: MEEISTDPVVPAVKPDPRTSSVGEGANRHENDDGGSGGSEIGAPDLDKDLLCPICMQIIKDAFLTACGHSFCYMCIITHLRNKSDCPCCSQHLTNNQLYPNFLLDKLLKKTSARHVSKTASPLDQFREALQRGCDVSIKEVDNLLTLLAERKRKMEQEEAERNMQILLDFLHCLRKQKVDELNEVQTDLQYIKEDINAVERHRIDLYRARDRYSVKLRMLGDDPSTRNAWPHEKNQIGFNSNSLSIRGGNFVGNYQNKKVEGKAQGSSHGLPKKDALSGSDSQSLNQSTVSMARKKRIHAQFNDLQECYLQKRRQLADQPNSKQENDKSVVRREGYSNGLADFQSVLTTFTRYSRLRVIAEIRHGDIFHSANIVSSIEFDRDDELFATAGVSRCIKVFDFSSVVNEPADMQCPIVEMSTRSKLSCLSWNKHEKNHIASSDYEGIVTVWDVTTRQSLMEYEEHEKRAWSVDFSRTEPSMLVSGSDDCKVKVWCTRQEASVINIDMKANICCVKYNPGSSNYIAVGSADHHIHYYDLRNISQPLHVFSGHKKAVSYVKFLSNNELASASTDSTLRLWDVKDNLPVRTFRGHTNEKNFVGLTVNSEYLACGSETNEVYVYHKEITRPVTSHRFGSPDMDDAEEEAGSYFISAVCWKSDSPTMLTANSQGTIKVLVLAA
B2: E3 ubiquitin-protein ligase COP1 (Arabidopsis thaliana (Mouse-ear cress)), P43254 (parent)
chain: B1 partner
partner: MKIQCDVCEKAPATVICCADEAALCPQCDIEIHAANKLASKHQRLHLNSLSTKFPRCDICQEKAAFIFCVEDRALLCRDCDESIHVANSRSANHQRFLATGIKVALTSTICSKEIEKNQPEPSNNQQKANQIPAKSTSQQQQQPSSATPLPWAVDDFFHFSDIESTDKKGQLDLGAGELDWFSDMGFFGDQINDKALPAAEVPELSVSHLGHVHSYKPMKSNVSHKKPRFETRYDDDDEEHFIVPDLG
B3: E3 ubiquitin-protein ligase COP1 (Arabidopsis thaliana (Mouse-ear cress)), P43254 (parent)
chain: B1 partner
partner: B1 chain
B4: Transcription factor HY5 (Arabidopsis thaliana (Mouse-ear cress)), O24646 (parent)
chain: MQEQATSSLAASSLPSSSERSSSSAPHLEIKEGIESDEEIRRVPEFGGEAVGKETSGRESGSATGQERTQATVGESQRKRGRTPAEKENKRLKRLLRNRVSAQQARERKKAYLSELENRVKDLENKNSELEERLSTLQNENQMLRHILKNTTGNKRGGGGGSNADASL
partner: B1 partner
B5: E3 ubiquitin-protein ligase COP1 (Arabidopsis thaliana (Mouse-ear cress)), P43254 (parent)
chain: B1 partner
partner: B4 chain

Variants of: B1
Conditions: with cop1_arath COP1, P43254

Variant	effect of a mutation on the interaction
MKIQCDVCEKAPATLICCADEAALCAKCDVEVHAANKLASKHQRLFLDSLSTKFPPCDICLEKAAFIFCVEDRALLCRDCDEATHAPNTRSANHQRFLATGIRVALSSTSCNQEVEKNHFDPSNQQSLSKPPTQQPAAPSPLWATDEFFSYSDLDCSNKEKEQLDLGELDWLAEMGLFGDQPDQEALPVAEVPELSFSHLAHAHSYNRPMKSNVPNKKQRLEYRYDDEEEHFLAADLG [V234A;P235A]	decreasing interaction

Variants of: B2
Conditions: with BBX24, Q96288-1

Variant	effect of a mutation on the interaction
E592R	increasing interaction
G524E	decreasing interaction
K550E	decreasing interaction
K422E	decreasing interaction
W467A	decreasing interaction
R465E	decreasing interaction

Variants of: B3
Conditions: with bbx25_arath BBX25, Q9SID1

Variant	effect of a mutation on the interaction
K550E	decreasing interaction
W467A	decreasing interaction
K422E	decreasing interaction
R465E	decreasing interaction
E592R	increasing interaction
G524E	decreasing interaction

Variants of: B4
Conditions: with cop1_arath COP1, P43254

Variant	effect of a mutation on the interaction
MQEQATSSLAASSLPSSSERSSSSAPHLEIKEGIESDEEIRRAAEFGGEAVGKETSGRESGSATGQERTQATVGESQRKRGRTPAEKENKRLKRLLRNRVSAQQARERKKAYLSELENRVKDLENKNSELEERLSTLQNENQMLRHILKNTTGNKRGGGGGSNADASL	decreasing interaction

Variants of: B5
Conditions: with hy5_arath HY5, O24646

Variant	effect of a mutation on the interaction
E592R	increasing interaction
W467A	decreasing interaction
K550E	decreasing interaction
G524E	decreasing interaction
K422E	increasing interaction
